According to US12485179B2, “Cholecystokinin B receptor targeting for imaging and therapy” (Purdue Research Foundation, priority 2012, dated 2025):

Test system: HEK CCK2R tumor xenografts
Test: In vivo radio-imaging and bio-distribution, HEK CCK2R tumor xenografts
Set-up: species or system nu/nu mice
Experimental: In order to test the in vivo specificity of CRL-3 chelated with ^99mTc, HEK CCK2R and CCK2i4svR subcutaneous tumors were produced in nude mice according to known methods. Athymic female nu/nu mice were purchased from Harlan Laboratories and maintained on normal rodent chow and housed in a sterile environment on a standard 12 hour light and dark cycle for the duration of the study. All animal procedures were approved by the Purdue Animal Care and Use Committee in accordance with NIH guidelines.
150 microcurie of CRL-3 ^99mTc was injected intravenously into each mouse. FIGS. 3A-B show an overlay of whole-body radio-images on white light photographs of mice bearing images of HEK CCK2R (a, b) and HEK CCKRi4sv (c, d) tumor xenografts in nu/nu mice two hours after the administration of CRL-3 ^99mTc. Kidneys were shielded with a lead plate. Mice a and c had the radioactive conjugate administered along with 100 fold of free unlabeled targeting ligand. In mice b and d, only the radio-conjugate CRL-3 ^99mTc was administered. Arrows indicate location of the tumor.
Following the above radio-imaging studies, animals were dissected and selected organs/tissues were collected into pre-weighed γ-counter tubes. Radioactivity of weighed tissues and test compounds were counted in a γ-counter. CPM values were decay corrected and results were calculated as % injected dose per gram of wet tissue (% ID/g). FIGS. 4A-B show the bio-distribution of the CRL-3 ^99mTc in mice having HEK CCK2i4svR and HEK CCK2R tumors. Error bars represent the standard deviation (n=5 mice/group).
Since small molecules are often excreted via the kidneys^43, we next elected to determine whether uptake of CRL-3 ^99mTc in the kidneys might be transient. […] By 24 h post tail vein injection, tumor to tissue ratios of CRL-3 ^99mTc in the muscle, heart, skin, blood, liver, and spleen were 90, 83, 30, 61, 4 and 14, respectively (see also Table 3).

[1] = 0.5, 2, 4, 8 hours post tail vein injection

CC(C)(C)C(=O)CN1C(=O)[C@H](NC(=O)Nc2cccc(C(=O)NCCCCCCCC(=O)N[C@H](CCC(=O)O)C(=O)N[C@H](CCC(=O)NC[C@H](O)[C@@H](O)[C@H](O)[C@H](O)CO)C(=O)N[C@H](CCC(=O)O)C(=O)N[C@H](CCC(=O)NC[C@H](O)[C@@H](O)[C@H](O)[C@H](O)CO)C(=O)NC[C@@H]3[NH][99Tc]45[S]C[C@@H](C(=O)O)[N]4C(=O)[C@H](CC(=O)O)[N]5C3=O)c2)CN(C2CCCCC2)c2ccccc21 (stereo partly shown) [CRL-3 ^99mTc]
content of the kidneys over time (SPECT-CT) [1]: decreased significantly over time | uptake in the tumor mass over time (SPECT-CT) [1]: relatively stable | accumulation of radio-conjugate, whole-body radio-image (150 microcurie i.v., two hours after administration, kidneys shielded): accumulated mainly in the receptor expressing tumor with little or no accumulation in other tissues except the kidney | tumor to tissue ratio, blood (24 h post tail vein injection): 61 | tumor to tissue ratio, heart (24 h post tail vein injection): 83 | tumor to tissue ratio, liver (24 h post tail vein injection): 4 | tumor to tissue ratio, muscle (24 h post tail vein injection): 90 | tumor to tissue ratio, skin (24 h post tail vein injection): 30 | tumor to tissue ratio, spleen (24 h post tail vein injection): 14 | Uptake of radioactivity, Blood (0.5 h post injection): 5.8 ± 2.7 % ID/g | Uptake of radioactivity, Blood (2 h post injection): 1.9 ± 0.97 % ID/g | Uptake of radioactivity, Blood (4 h post injection): 1.7 % ID/g | Uptake of radioactivity, Blood (8 h post injection): 0.24 % ID/g | Uptake of radioactivity, Blood (24 h post injection): 0.10 % ID/g | Uptake of radioactivity, Brain (0.5 h post injection): 0.13 % ID/g | Uptake of radioactivity, Brain (2 h post injection): 0.051 % ID/g | Uptake of radioactivity, Brain (4 h post injection): 0.053 % ID/g | Uptake of radioactivity, Brain (8 h post injection): 0.064 % ID/g | Uptake of radioactivity, Brain (24 h post injection): 0.0076 % ID/g | Uptake of radioactivity, Heart (0.5 h post injection): 2.3 ± 1.5 % ID/g | Uptake of radioactivity, Heart (2 h post injection): 0.68 ± 0.47 % ID/g | Uptake of radioactivity, Heart (4 h post injection): 0.59 % ID/g | Uptake of radioactivity, Heart (8 h post injection): 0.14 % ID/g | Uptake of radioactivity, Heart (24 h post injection): 0.076 % ID/g | Uptake of radioactivity, Large Intestine (0.5 h post injection): 1.0 ± 0.52 % ID/g | Uptake of radioactivity, Large Intestine (2 h post injection): 0.46 ± 0.20 % ID/g | Uptake of radioactivity, Large Intestine (4 h post injection): 0.53 % ID/g | Uptake of radioactivity, Large Intestine (8 h post injection): 0.24 % ID/g | Uptake of radioactivity, Large Intestine (24 h post injection): 0.13 % ID/g | Uptake of radioactivity, Left Kidney (0.5 h post injection): 11.2 ± 6.1 % ID/g | Uptake of radioactivity, Left Kidney (2 h post injection): 8.4 ± 4.6 % ID/g | Uptake of radioactivity, Left Kidney (4 h post injection): 13.4 % ID/g | Uptake of radioactivity, Left Kidney (8 h post injection): 6.0 % ID/g | Uptake of radioactivity, Left Kidney (24 h post injection): 2.6 % ID/g | Uptake of radioactivity, Liver (0.5 h post injection): 6.7 ± 3.6 % ID/g | Uptake of radioactivity, Liver (2 h post injection): 2.5 ± 2.4 % ID/g | Uptake of radioactivity, Liver (4 h post injection): 4.1 % ID/g | Uptake of radioactivity, Liver (8 h post injection): 1.9 % ID/g | Uptake of radioactivity, Liver (24 h post injection): 1.4 % ID/g | Uptake of radioactivity, Lungs (0.5 h post injection): 3.2 ± 1.7 % ID/g | Uptake of radioactivity, Lungs (2 h post injection): 1.2 ± 0.55 % ID/g | Uptake of radioactivity, Lungs (4 h post injection): 1.0 % ID/g | Uptake of radioactivity, Lungs (8 h post injection): 0.29 % ID/g | Uptake of radioactivity, Lungs (24 h post injection): 0.18 % ID/g | Uptake of radioactivity, Muscle (0.5 h post injection): 0.8 ± 0.37 % ID/g | Uptake of radioactivity, Muscle (2 h post injection): 0.29 % ID/g | Uptake of radioactivity, Muscle (4 h post injection): 0.3 % ID/g | Uptake of radioactivity, Muscle (8 h post injection): 0.093 % ID/g | Uptake of radioactivity, Muscle (24 h post injection): 0.070 % ID/g | Uptake of radioactivity, Pancreas (0.5 h post injection): 1.3 ± 0.62 % ID/g | Uptake of radioactivity, Pancreas (2 h post injection): 0.69 ± 0.84 % ID/g | Uptake of radioactivity, Pancreas (4 h post injection): 0.29 % ID/g | Uptake of radioactivity, Pancreas (8 h post injection): 0.10 % ID/g | Uptake of radioactivity, Pancreas (24 h post injection): 0.053 % ID/g | Uptake of radioactivity, Right Kidney (0.5 h post injection): 11.4 ± 6.3 % ID/g | Uptake of radioactivity, Right Kidney (2 h post injection): 7.6 ± 4.4 % ID/g | Uptake of radioactivity, Right Kidney (4 h post injection): 12.8 % ID/g | Uptake of radioactivity, Right Kidney (8 h post injection): 5.7 % ID/g | Uptake of radioactivity, Right Kidney (24 h post injection): 2.6 % ID/g | Uptake of radioactivity, Skin (0.5 h post injection): 2.3 ± 1.2 % ID/g | Uptake of radioactivity, Skin (2 h post injection): 1.0 ± 0.41 % ID/g | Uptake of radioactivity, Skin (4 h post injection): 1.1 % ID/g | Uptake of radioactivity, Skin (8 h post injection): 0.42 % ID/g | Uptake of radioactivity, Skin (24 h post injection): 0.21 % ID/g | Uptake of radioactivity, Small Intestine (0.5 h post injection): 1.2 ± 0.63 % ID/g | Uptake of radioactivity, Small Intestine (2 h post injection): 0.52 ± 0.28 % ID/g | Uptake of radioactivity, Small Intestine (4 h post injection): 0.52 % ID/g | Uptake of radioactivity, Small Intestine (8 h post injection): 0.19 % ID/g | Uptake of radioactivity, Small Intestine (24 h post injection): 0.13 % ID/g | Uptake of radioactivity, Spleen (0.5 h post injection): 2.1 ± 1.2 % ID/g | Uptake of radioactivity, Spleen (2 h post injection): 0.69 ± 0.70 % ID/g | Uptake of radioactivity, Spleen (4 h post injection): 1.4 % ID/g | Uptake of radioactivity, Spleen (8 h post injection): 0.65 % ID/g | Uptake of radioactivity, Spleen (24 h post injection): 0.45 % ID/g | Uptake of radioactivity, Stomach (0.5 h post injection): 1.2 ± 0.61 % ID/g | Uptake of radioactivity, Stomach (2 h post injection): 0.58 ± 0.32 % ID/g | Uptake of radioactivity, Stomach (4 h post injection): 0.56 % ID/g | Uptake of radioactivity, Stomach (8 h post injection): 0.24 % ID/g | Uptake of radioactivity, Stomach (24 h post injection): 0.15 % ID/g | Uptake of radioactivity, Tumor (0.5 h post injection): 7.4 ± 4.6 % ID/g | Uptake of radioactivity, Tumor (2 h post injection): 8.1 ± 5.1 % ID/g | Uptake of radioactivity, Tumor (4 h post injection): 12.0 % ID/g | Uptake of radioactivity, Tumor (8 h post injection): 8.5 % ID/g | Uptake of radioactivity, Tumor (24 h post injection): 6.3 ±3.7 % ID/g | bio-distribution of radiotracer in organs/tissues (after radio-imaging, n=5 mice/group): only the tumor and kidneys show excessive accumulation of radiotracer
